Positions count from the first letter of the chain named. One block for each binder: values may come before it.
How the values were obtained:
[1] = target: biotin labeled hRAGE-Fc (human) (UniProt Q15109); assay: HTRF competition; scFv against Eu-cryptate XT-M4 for biotin-hRAGE-Fc
[2] = target: T1, biotin labeled hRAGE-Fc (human, UniProt Q15109 24-344, biotin-labeled (site not stated)); assay: as above
T1 construct: used biotinylated in HTRF and coated in ELISA; also called Biotin-labeled RAGE-Fc; biotinylated-RAGE-Fc; not shown: Fc part not described
T1 sequence (Q15109 24-344): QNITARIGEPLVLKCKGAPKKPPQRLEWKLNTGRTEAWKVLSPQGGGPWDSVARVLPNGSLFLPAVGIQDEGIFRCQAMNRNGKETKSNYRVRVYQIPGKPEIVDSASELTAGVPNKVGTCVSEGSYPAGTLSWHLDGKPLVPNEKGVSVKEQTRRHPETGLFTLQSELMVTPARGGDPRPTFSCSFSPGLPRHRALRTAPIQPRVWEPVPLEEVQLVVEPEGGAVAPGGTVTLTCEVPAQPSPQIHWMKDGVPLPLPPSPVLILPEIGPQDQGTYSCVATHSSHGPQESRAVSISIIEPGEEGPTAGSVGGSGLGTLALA

Sequence of biotin labeled hRAGE-Fc (human) (Q15109 24-344): as above

IC50 [1]: 8.27 nM
B1: 6A12 scFv (scFv, from a related filing, part only)
scFv: DIQMTQSPSSLSASVGDRVTITCRASQDVGIYVNWFQQKPGKAPRRLIYRATNLADGVPSRFSGSRSGTDFTLTISSLQPEDFATYYCLQYDAHPLTFGGGTKVEIKDGGGSGGGGSGGGGSSEVQLVESGGGLVQPGGSLRLSCAASGFTFNNYWMTWVRQAPGKGLEWVASIDNSGDNTYYPDSVKDRFTISRDNAKNSLYLQMNSLRAEDTAVYYCARGGDITTGFDYWGQGTLVTVSS

IC50 [2]: 1.25 nM
B2: 3C6 scFv (scFv)
chain: B1 scFv with Q90E, Y91F, A93E, T226V, T227V, F229L, Y231H

IC50 [1]: 8.08 nM
B3: 3G8 scFv (scFv, from a related filing, part only)
scFv: B1 scFv

IC50 [2]: 2.99 nM
B4: 3D5 scFv (scFv)
chain: B1 scFv with Q90E, Y91F, A93E, T226K, T227V, F229L, Y231L

IC50 [1]: 7.35 nM
B5: 3B7 scFv (scFv, from a related filing, part only)
scFv: B1 scFv with Y91F, A93S

IC50 [2]: 0.91 nM
B6: 3B2 scFv (scFv)
chain: B1 scFv with Q90E, Y91F, A93E, T226L, T227V, F229L

IC50 [2]: 1.52 nM
B7: 6C3 scFv (scFv)
chain: B1 scFv with Q90E, Y91F, A93E, T227L, F229L, Y231V

IC50 [2]: 1.3 nM
B8: 3B4 scFv (scFv)
chain: B1 scFv with Q90E, Y91F, A93E, T226R, T227E, F229L, D230R

IC50 [2]: 4.44 nM
B9: 6C1 scFv (scFv)
chain: B1 scFv with Q90E, Y91L, A93E, T226K, T227V, F229L, Y231N

IC50 [1]: 9.03 nM
B10: 6C11 scFv (scFv, from a related filing, part only)
scFv: B1 scFv

IC50 [2]: 0.64 nM
B11: 6B6 scFv (scFv)
chain: B1 scFv with Q90E, Y91F, A93E, T226I, T227I, G228S, F229L, Y231W

IC50 [2]: 1.45 nM
B12: 6D5 scFv (scFv)
chain: B1 scFv with Q90E, Y91F, A93E, T226K, T227V, G228S, F229L, Y231Q

IC50 [2]: 1.74 nM
B13: 6E3 scFv (scFv)
chain: B1 scFv with Q90E, Y91F, A93E, T226R, T227V, G228S, F229L, Y231F
